Data: EP2878677A1, “Activators of protein phosphatase 5” (Deutsches Zentrum für Neurodegenerative Erkrankungen e.V. …, priority 2013, dated 2015)

Biological target: YFP-Hsp90/DAF-21 (N-terminal YFP-tagged Hsp90) (C. elegans) (UniProt Q18688)
Assay: sedimentation velocity AUC with fluorescence detection; 300 nM YFP-Hsp90, 3 uM PPH-5; YFP-Hsp90 alone 6.8 S

PPH-5 (C. elegans protein phosphatase 5) (enzyme)
sedimentation coefficient (s20,w) of YFP-Hsp90 in complex with PPH-5: 8.9 S
